Target: FITC-labelled human holo-transferrin (human, UniProt P02787 20-698, FITC label (position not given); holo form)
Assay: solid-phase fluorescence binding assay

Chain of FITC-labelled human holo-transferrin (P02787 20-698): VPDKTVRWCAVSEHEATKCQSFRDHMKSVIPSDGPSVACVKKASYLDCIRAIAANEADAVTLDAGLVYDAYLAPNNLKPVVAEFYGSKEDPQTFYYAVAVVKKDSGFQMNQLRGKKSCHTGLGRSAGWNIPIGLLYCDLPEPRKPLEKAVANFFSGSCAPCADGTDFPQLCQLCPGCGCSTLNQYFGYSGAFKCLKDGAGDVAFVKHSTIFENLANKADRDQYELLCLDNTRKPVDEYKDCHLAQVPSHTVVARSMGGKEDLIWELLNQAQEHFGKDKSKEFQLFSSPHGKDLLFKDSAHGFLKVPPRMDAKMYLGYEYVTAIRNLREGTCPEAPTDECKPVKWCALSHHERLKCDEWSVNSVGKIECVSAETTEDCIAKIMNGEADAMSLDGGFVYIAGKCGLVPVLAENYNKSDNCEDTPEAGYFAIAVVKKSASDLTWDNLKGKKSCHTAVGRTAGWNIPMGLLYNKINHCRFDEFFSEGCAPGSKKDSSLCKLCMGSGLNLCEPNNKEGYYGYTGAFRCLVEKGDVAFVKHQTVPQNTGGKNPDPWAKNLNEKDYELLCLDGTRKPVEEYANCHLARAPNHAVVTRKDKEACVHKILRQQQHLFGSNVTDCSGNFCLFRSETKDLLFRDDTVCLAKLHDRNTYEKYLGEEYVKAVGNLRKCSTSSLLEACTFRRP

binding result: binds
B1: immX3AVD (peptide)
peptide: KKGFYKKKQCRPSKGRKRGFCWAVD
modifications: biotinylated (position not given); labelled with streptavidin-Alexa 488 conjugate (SA488) in the nuclear receptor assay

From article PMC9830397 (European Journal of Translational Myology, 2022)
